# Assay results published in paper PMC6168860, “Dual Role of a Viral Polymerase in Viral Genome Replication and Particle Self-Assembly” (mBio, 2018).
# Where a chain is given by its changes, count along the chain named. Numbers in names are those of the source.
# B1: Pseudomonas phage Φ6 major capsid protein P1 (natural protein, UniProt P11126 1-769, looked up)
# chain: MFNLKVKDLNGSARGLTQAFAIGELKNQLSVGALQLPLQFTRTFSASMTSELLWEVGKGNIDPVMYARLFFQYAQAGGALSVDELVNQFTEYHQSTACNPEIWRKLTAYITGSSNRAIKADAVGKVPPTAILEQLRTLAPSEHELFHHITTDFVCHVLSPLGFILPDAAYVYRVGRTATYPNFYALVDCVRASDLRRMLTALSSVDSKMLQATFKAKGALAPALISQHLANAATTAFERSRGNFDANAVVSSVLTILGRLWSPSTPKELDPSARLRNTNGIDQLRSNLALFIAYQDMVKQRGRAEVIFSDEELSSTIIPWFIEAMSEVSPFKLRPINETTSYIGQTSAIDHMGQPSHVVVYEDWQFAKEITAFTPVKLANNSNQRFLDVEPGISDRMSATLAPIGNTFAVSAFVKNRTAVYEAVSQRGTVNSNGAEMTLGFPSVVERDYALDRDPMVAIAALRTGIVDESLEARASNDLKRSMFNYYAAVMHYAVAHNPEVVVSEHQGVAAEQGSLYLVWNVRTELRIPVGYNAIEGGSIRTPEPLEAIAYNKPIQPSEVLQAKVLDLANHTTSIHIWPWHEASTEFAYEDAYSVTIRNKRYTAEVKEFELLGLGQRRERVRILKPTVAHAIIQMWYSWFVEDDRTLAAARRTSRDDAEKLAIDGRRMQNAVTLLRKIEMIGTTGIGASAVHLAQSRIVDQMAGRGLIDDSSDLHVGINRHRIRIWAGLAVLQMMGLLSRSEAEALTKVLGDSNALGMVVATTDIDPSL
# notes: major capsid protein P1 of Pseudomonas phage Φ6, wild type; The shell holds 120 copies of P1 (60 asymmetric P1A/P1B dimers) by the introduction; In the recombinant PCs of a11 P1 was co-expressed from pLM687 in E. coli JM109; also called main structural P1 protein; P1 shell; source: E. coli JM109, P1P4 particles from plasmid pLM358, P1 purified as previously described
# B2: Φ6 P2 surface mutant HER (histidine-tagged) (enzyme, Pseudomonas phage Φ6, UniProt P11124 1-665, looked up)
# chain: MPRRAPAFPLSDIKAQMLFANNIKAQQASKRSFKEGAIETYEGLLSVDPRFLSFKNELSRYLTDHFPANVDEYGRVYGNGVRTNFFGMRHMNGFPMIPATWPLASNLKKRADADLADGPVSERDNLLFRAAVRLMFSDLEPVPLKIRKGSSTCIPYFSNDMGTKIEIAERALEKAEEAGNLMLQGKFDDAYQLHQMGGAYYVVYRAQSTDAITLDPKTGKFVSKDRMVADFEYAVTGGEQGSLFAASKDASRLKEQYGIDVPDGFFCERRRTAMGGPFALNAPIMAVAQPVRNKIYSKYAYTFHHTTRLNKEEKVKEWSLCVATDVSDHDTFWPGWLRDLICDELLNMGYAPWWVKLFETSLKLPVYVGAPAPEQGHTLLGDPSNPDLEVGLSSGQGATDLMGTLLMSITYLVMQLDHTAPHLNSRIKDMPSACRFLDSYWQGAQEIRQISKSDDAILGWTKGRALVGGHALFEMLKEGKVNPSPYMKISYEHGGAFLGDILLYDSRREPGSAIFVGNINSMLNNQFSPEYGVQSGVRDRSKRKRPFPGLAWASMKDTYGACPIYSDVLEAIERCWWNAFGESYRAYREDMLKRDTLELSRYVASMARQAGLAELTPIDLEVLADPNKLQYKWTEADVSANIHEVLMHGVSVEKTERFLRSVMPR
# notes: RNA-dependent RNA polymerase P2 of Pseudomonas phage Φ6 with His443 to Ala, Glu444 to Gln and Arg470 to Ala, made from pEM33 (C-terminal hexahistidine tag); source: E. coli BL21(DE3), plasmid pXS29, purified as described for N-terminally histidine-tagged P2; not shown: His6, C-terminal, kept
# B3: Φ6 P2 surface mutant W576A (histidine-tagged) (enzyme, Pseudomonas phage Φ6, UniProt P11124 1-665, looked up)
# chain: B2 chain with A444H, Q445E, A471R, W577A
# notes: RNA-dependent RNA polymerase P2 of Pseudomonas phage Φ6 with Trp576 to Ala, made from pEM33 (C-terminal hexahistidine tag); source: E. coli BL21(DE3), plasmid pXS28, purified as described for N-terminally histidine-tagged P2; not shown: His6, C-terminal, kept
# B4: Φ6 P2 surface mutant HERW (histidine-tagged) (enzyme, Pseudomonas phage Φ6, UniProt P11124 1-665, looked up)
# chain: B2 chain with W577A
# notes: source: E. coli BL21(DE3), plasmid pXS30, purified as described for N-terminally histidine-tagged P2; not shown: His6, C-terminal, kept
# How the values were obtained:
# [1] = target: the molecule itself; assay: co-sedimentation; in vitro self-assembly of purified P1 and P4 (120:72), no P2, no P7 (P1P4 reaction); room temperature, 90 min, 250 to 350 mM NaCl, 20 mM Tris pH 8.0, 6% PEG 4000, P1 about 0.2 mg/ml; rate-zonal centrifugation in 10% to 30% sucrose, light-scattering zones analysed by SDS-PAGE
# [2] = target: B1; assay: co-sedimentation; in vitro self-assembly of purified P1, P4 (120:72) and P2 or P2 variant at 10×P2 (P1:P2 120:120), no P7; room temperature, 90 min, 250 to 350 mM NaCl, 20 mM Tris pH 8.0, 6% PEG 4000; rate-zonal centrifugation in 10% to 30% sucrose, P2 copies per particle from SDS-PAGE; conditions: both partners purified
Binder,binding result [1],copies of P2 variant per particle [2]
B1,binds,
B2,,6 copies per particle
B3,,12 copies per particle
B4,,4 copies per particle
